Data: publication PMC3285607, “A P-loop Mutation in Gα Subunits Prevents Transition to the Active State: Implications for G-protein Signaling in Fungal Pathogenesis” (PLoS Pathogens, 2012)

Molecular target: T1, GαoA, wild type, full-length, hexahistidine-tagged (UniProt P09471 1-354)
T1 construct: also called wild type GαoA
Test: SPR; Biacore 3000; GST-RGS12 RGS domain captured on anti-GST antibody on a CM5 chip; Gαo injected in the GDP·AlF4- state; equilibrium binding isotherm
Settings: both partners purified

T1 sequence (P09471 whole entry): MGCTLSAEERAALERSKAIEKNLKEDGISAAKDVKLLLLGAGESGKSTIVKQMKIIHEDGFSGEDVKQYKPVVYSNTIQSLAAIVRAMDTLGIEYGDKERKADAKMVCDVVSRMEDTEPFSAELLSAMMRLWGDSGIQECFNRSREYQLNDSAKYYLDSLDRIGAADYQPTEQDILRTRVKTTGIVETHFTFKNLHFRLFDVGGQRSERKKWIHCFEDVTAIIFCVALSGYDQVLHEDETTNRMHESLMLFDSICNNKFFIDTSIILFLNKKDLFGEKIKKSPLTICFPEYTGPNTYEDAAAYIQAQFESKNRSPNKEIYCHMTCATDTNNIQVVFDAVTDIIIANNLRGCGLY

B1: GST fusion of the RGS12 RGS domain (aa 664–885) (domain or fragment, UniProt O14924 664-885, looked up)
chain: DLESATVSDGELTGADLKDCVSNNSLSSNASLPSVQSCRRLRERRVASWAVSFERLLQDPVGVRYFSDFLRKEFSEENILFWQACEYFNHVPAHDKKELSYRAREIFSKFLCSKATTPVNIDSQAQLADDVLRAPHPDMFKEQQLQIFNLMKFDSYTRFLKSPLYQECILAEVEGRALPDSQQVPSSPASKHSLGSDHSSVSTPKKLSGKSKSGRSLNEELG
notes: also called GST-RGS12
  Kd: 1270 nM
